Reference: publication PMC7595633 (PLoS Neglected Tropical Diseases, 2020)
“And” between values parts separate entries of the source, which are not always exact repeats. Equal values may be shown once.

T1: Trypanosoma brucei selenocysteine lyase (TbSCLY), recombinant (Trypanosoma brucei, UniProt Q38DC4 1-451, pyridoxal-phosphate (PLP) bound to the active site)
T1 chain: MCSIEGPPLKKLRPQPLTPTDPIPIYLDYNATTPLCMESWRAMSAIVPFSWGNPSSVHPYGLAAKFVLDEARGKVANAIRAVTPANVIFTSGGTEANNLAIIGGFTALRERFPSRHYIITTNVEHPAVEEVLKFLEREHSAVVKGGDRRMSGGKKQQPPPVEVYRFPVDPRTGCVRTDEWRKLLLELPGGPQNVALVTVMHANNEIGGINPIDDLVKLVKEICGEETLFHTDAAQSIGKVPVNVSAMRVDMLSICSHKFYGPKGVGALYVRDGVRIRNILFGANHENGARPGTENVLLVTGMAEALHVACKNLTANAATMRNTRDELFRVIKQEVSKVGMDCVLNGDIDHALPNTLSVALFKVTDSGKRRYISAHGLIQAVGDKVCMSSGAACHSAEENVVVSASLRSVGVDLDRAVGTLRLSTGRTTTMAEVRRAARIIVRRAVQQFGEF

B1: Trypanosoma brucei selenophosphate synthetase (TbSEPHS2), recombinant full-length (enzyme, UniProt Q38A34 1-393, looked up)
chain: MSEKEGKVIPETNGMKRPRFDPVKLGLPEEFTLTDYTRLKGCSCKVPQPELLALLQSVSTTPGRRDVGMDCSIVKLQHKDETGKPLYMVSTTDFFFPSVEDPYLQGQIGAANVLSDLYSTGIDRCDTVLMLLAASTDMDKTEREVCTQEMMKGFVDHVRLAGSDVTGGQTVMNPWPLIGGIATSVVAESQMIRPTGLQPGDILVLTKPLGCQIAVNLKQWLRRPSPIFEEQIQGKMDSEEIEELYNAAADGMKRLNRMAAALMHSHGAHGATDVTGFGILGHAKNLGSAQKADVCLVLDSLPMYRGAVKASKLMGDKYRLFEGYAAETSGGLLVAFGTREEAEGYIRELYETDGEPAWVVGRVVRREGSAPYALLQKDYKIIEVGAKVNDKII
notes: selenophosphate synthetase SEPHS2 of Trypanosoma brucei, Tb927.10.9410, 393 residues (from the limits of the truncated constructs); also called SPS2; TbSPSH2
B2: Leishmania major selenophosphate synthetase (LmSEPHS2), recombinant full-length (enzyme, UniProt Q4Q0M0 1-398, looked up)
chain: MSHKRPQSSAGESNGAVDLKTPRFDPVSLGLPAEFQLTDYTRLKGCSCKLPQPKLLALLQELSATPGQKDVGMDCSIVPLHHTNSKGEALFLVSTTDFFFPSVSDPFLQGQIGAANVLSDLYSMGIPDCDTMLMLLAASTEMDEHERLITTREIMKGFAERARLATTTVTGGQTVMNPWPLIGGVAMAVVSEAEMVRPTGLLCAGDILVLTKPLGCQVAVNLKQWLLRPSPLYEEAIAGHISPEEIEELYNMATDSMRRLNREGARLMRKHGAHGATDVTGFGILGHANNFGAAQAVGDAPRSLCLVLERLPMFKTAVAASKQMNDKYRLLEGYSAETSGGLLVAFPSTTAAAAFCAELTAVDGGCPSWIVGHVEDRATNAVDGVYARLKDGYEIVEV
notes: selenophosphate synthetase SEPHS2 of Leishmania major, LmjF.36.5410; also called LmSEPSH2
B3: ΔN(70)-TbSEPHS2, residues 71-393 (domain or fragment, Trypanosoma brucei, UniProt Q38A34 71-393, looked up)
chain: CSIVKLQHKDETGKPLYMVSTTDFFFPSVEDPYLQGQIGAANVLSDLYSTGIDRCDTVLMLLAASTDMDKTEREVCTQEMMKGFVDHVRLAGSDVTGGQTVMNPWPLIGGIATSVVAESQMIRPTGLQPGDILVLTKPLGCQIAVNLKQWLRRPSPIFEEQIQGKMDSEEIEELYNAAADGMKRLNRMAAALMHSHGAHGATDVTGFGILGHAKNLGSAQKADVCLVLDSLPMYRGAVKASKLMGDKYRLFEGYAAETSGGLLVAFGTREEAEGYIRELYETDGEPAWVVGRVVRREGSAPYALLQKDYKIIEVGAKVNDKII
notes: selenophosphate synthetase SEPHS2 of Trypanosoma brucei, Tb927.10.9410, residues 71-393; Cloned into pET20b with the printed oligonucleotides; also called ΔN(70)-SEPHS2
B4: ΔN(25)-TbSEPHS2, amino acid residues 26-393 (domain or fragment, Trypanosoma brucei, UniProt Q38A34 26-393, looked up)
chain: GLPEEFTLTDYTRLKGCSCKVPQPELLALLQSVSTTPGRRDVGMDCSIVKLQHKDETGKPLYMVSTTDFFFPSVEDPYLQGQIGAANVLSDLYSTGIDRCDTVLMLLAASTDMDKTEREVCTQEMMKGFVDHVRLAGSDVTGGQTVMNPWPLIGGIATSVVAESQMIRPTGLQPGDILVLTKPLGCQIAVNLKQWLRRPSPIFEEQIQGKMDSEEIEELYNAAADGMKRLNRMAAALMHSHGAHGATDVTGFGILGHAKNLGSAQKADVCLVLDSLPMYRGAVKASKLMGDKYRLFEGYAAETSGGLLVAFGTREEAEGYIRELYETDGEPAWVVGRVVRREGSAPYALLQKDYKIIEVGAKVNDKII
notes: selenophosphate synthetase SEPHS2 of Trypanosoma brucei, Tb927.10.9410, residues 26-393; Cloned into pET20b with the printed oligonucleotides
B5: ΔN(69)-LmSEPHS2, N-terminally truncated L. major selenophosphate synthetase (domain or fragment, Leishmania major, UniProt Q4Q0M0 70-398, looked up)
chain: DVGMDCSIVPLHHTNSKGEALFLVSTTDFFFPSVSDPFLQGQIGAANVLSDLYSMGIPDCDTMLMLLAASTEMDEHERLITTREIMKGFAERARLATTTVTGGQTVMNPWPLIGGVAMAVVSEAEMVRPTGLLCAGDILVLTKPLGCQVAVNLKQWLLRPSPLYEEAIAGHISPEEIEELYNMATDSMRRLNREGARLMRKHGAHGATDVTGFGILGHANNFGAAQAVGDAPRSLCLVLERLPMFKTAVAASKQMNDKYRLLEGYSAETSGGLLVAFPSTTAAAAFCAELTAVDGGCPSWIVGHVEDRATNAVDGVYARLKDGYEIVEV
notes: selenophosphate synthetase SEPHS2 of Leishmania major, LmjF.36.5410, lacking the 69-residue N-terminal region; also called ΔN-LmSEPHS2

Legend:
[1] = target: T1, Trypanosoma brucei selenocysteine lyase …; experiment: ITC
[2] = target: the molecule itself; experiment: AUC; sedimentation equilibrium; tetramer to dimers; 0.5, 0.75 and 1.0 mg/mL; 8,000, 10,000 and 12,000 rpm, 4°C; global fit in SEDPHAT
[3] = target: the molecule itself; experiment: native gel or EMSA; PhastGel gradient 8-25%, room temperature; 1 mg/mL (methods), 2 mg/mL (legend of Fig 1D); Coomassie stained

Row | Binder | Kd [1] | Kd [2] | stoichiometry N [3]
1 | B1 | 5.2 µM |  | 
2 | B2 |  | 178 ± 10 µM | 2 and 4
3 | B3 |  |  | 2 and 4
4 | B4 |  |  | 2 and 4
5 | B5 |  |  | 2 and 4
